Series [1] deals with T1, STING C-terminal region (hSTING-C) (human, UniProt Q86WV6 152-379). Put plainly: fluorescence anisotropy. Background: Fluorescence polarisation rises when a labelled molecule tumbles more slowly, as on binding a larger partner.
Series [2] addresses T2, STING C-terminal region (UniProt Q86WV6 181-379). Put plainly: SPR. For orientation: In SPR one partner is held on a chip, and binding of the other changes the refractive index at the surface.
For series [3], the target named is T2, STING C-terminal region. Put plainly: pull-down.
The target in series [4] is T1, STING C-terminal region (hSTING-C). Put plainly: fluorescence anisotropy. This is another data set of the same source.

Where two headings read alike, the source gives them in different places.

T1 sequence (Q86WV6 152-379): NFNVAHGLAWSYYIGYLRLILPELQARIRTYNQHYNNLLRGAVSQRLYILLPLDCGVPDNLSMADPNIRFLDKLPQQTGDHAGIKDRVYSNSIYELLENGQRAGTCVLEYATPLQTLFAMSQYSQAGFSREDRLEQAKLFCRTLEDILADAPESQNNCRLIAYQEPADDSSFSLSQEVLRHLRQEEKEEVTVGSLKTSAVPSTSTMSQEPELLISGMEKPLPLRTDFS
T2 sequence (Q86WV6 181-379): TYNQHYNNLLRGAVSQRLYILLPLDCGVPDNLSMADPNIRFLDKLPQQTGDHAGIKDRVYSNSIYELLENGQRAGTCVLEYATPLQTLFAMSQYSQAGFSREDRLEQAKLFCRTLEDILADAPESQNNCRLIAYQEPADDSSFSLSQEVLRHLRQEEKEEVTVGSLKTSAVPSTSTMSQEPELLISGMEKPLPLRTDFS

B1: dsDNA 18-mer (dsDNA)
DNA 1: TACAGATCTACTAGTGAT
DNA 2: ATCACTAGTAGATCTGTA
For orientation: Kd means the concentration at which binding is half-saturated. High values mean a looser complex, low ones a tighter complex. B1 yielded a Kd in series [1] of 337 ± 26 µM.

B2: dsDNA90 (dsDNA)
DNA 1: TACAGATCTACTAGTGATCTATGACTGATCTGTACATGATCTACATACAGATCTACTAGTGATCTATGACTGATCTGTACATGATCTACA
DNA 2: TGTAGATCATGTACAGATCAGTCATAGATCACTAGTAGATCTGTATGTAGATCATGTACAGATCAGTCATAGATCACTAGTAGATCTGTA
In turn, B2 yielded a Kd with STING C-terminal region [2] of 13.7 µM.

B3: ssDNA90 (ssDNA)
DNA: B2 DNA 1
For the molecule B3, the binding result with STING C-terminal region [3] was “binds”.

B4: dsDNA 30-mer (dsDNA)
DNA 1: TACAGATCTACTAGTGATCTATGACTGATC
DNA 2: GATCAGTCATAGATCACTAGTAGATCTGTA
For B4, the Kd in series [4] came out at 247 ± 38 µM.

(Values after PMC3881179.)
